Data as given in PMC2582609.

Tests used:
[1] = biological target: NIPBL R1856G (CdLS missense mutation) GAL4-DNA-binding domain fusion (human) (UniProt Q6KC79); test: two-hybrid
[2] = biological target: NIPBL R1895T (CdLS missense mutation) GAL4-DNA-binding domain fusion (human) (UniProt Q6KC79); test: two-hybrid

full-length HDAC3 fused to the GAL4-activating domain (from UniProt O15379 1-428) (enzyme)
β-galactosidase activity compared to the wild-type construct [1]: 50% | β-galactosidase activity compared to the wild-type construct [2]: 50%
